One variant from IntAct's records for PubMed 15665853 can be followed below.

B1: Spindle assembly abnormal protein 5 (Caenorhabditis elegans), Q20010 (parent)
chain: MNNYDDLPCSIYFKKPTVQEFVDQPRVFEDSEVPAFQEVLQLPQERTKPPVPSTQPIVAAVEVAKKKSCLSAPKPRKEPPSHPALRQKTVAFGKTVNVSQTVEGTSRNSKKVLASTMSAQNTTTTEEQAAENWRDAMKTELQTIRTEIQEETARRQEELNAQNLVKMQELMSNFFQKITIPKQQAIEPVEKDKENFHESPRQSRQQKPASKIASAREVIKRDGVIPPEALTIIEQRLRSDPMFRQQIDNVLADAECDANRAAYSPPPPMSEVRYGSGVNPALMRETLTVERSIRYDNGLASIDSRQWTNERRDNRAPDSYRTYEPDQPCHSLYQKGQSISYYPSEAAGKTTARNNRTGYYVEDSSDHEEDVVVNKRGQNYHEQAVPETPAERERRIREKYARRK
partner: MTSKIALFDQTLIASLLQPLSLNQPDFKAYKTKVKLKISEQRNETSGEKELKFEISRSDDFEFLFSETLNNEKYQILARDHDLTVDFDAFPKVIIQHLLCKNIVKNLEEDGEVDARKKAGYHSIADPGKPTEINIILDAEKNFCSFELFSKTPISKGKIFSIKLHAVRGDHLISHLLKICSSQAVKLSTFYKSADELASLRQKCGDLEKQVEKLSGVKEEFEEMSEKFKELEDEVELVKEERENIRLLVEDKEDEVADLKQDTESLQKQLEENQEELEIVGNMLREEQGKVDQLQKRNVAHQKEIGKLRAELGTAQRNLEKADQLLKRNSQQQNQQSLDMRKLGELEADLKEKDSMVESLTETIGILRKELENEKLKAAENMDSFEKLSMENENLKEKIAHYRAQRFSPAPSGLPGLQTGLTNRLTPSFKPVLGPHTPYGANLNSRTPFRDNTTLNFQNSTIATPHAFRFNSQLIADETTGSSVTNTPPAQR

Variants of B1 are the subject of the test. The note with it: with sas6_caeel sas-6, O62479.
In the case of MNNYDDLPCSIYFKKPTVQEFVDQPRVFEDSEVPAFQEVLQLPQERTKPPVPSTQPIVAAVEVAKKKSCLSAPKPRKEPPSHPALRQKTVAFGKTVNVSQTVEGTSRNSKKVLASTMSAQNTTTTEEQAAENWRDAMKTELQTIRTEIQEETARRQEELNAQNLVKMQELMSNFFQKITIPKQQAIEPVEKDKENFHESPRQSRQQKPASKIASAREVIKRDGVIPPEALTIIEQRLRSDPMFRQQIDNVLADAECDANRAAYSPPPPMSEVRYGSGVNPALMRETLTVERSIRYDNGLASIDSRQWTNERRDNRAPDSYRTYEPDQPCHSLYQKGQSISYYPSEAAGKTTARNNRTGYYVEDSSDHEEDVVVNKRGQNYHEQAVPETPAERERRICEKYARRK [R397C], the “effect of a mutation on the interaction” value is reported as “decreasing interaction”.
